# From publication PMC6005685 (Journal of molecular recognition : JMR, 2017)
# Legend:
# cross-linking = molecular target: the molecule itself; test: cross-linking
# SEC = molecular target: the molecule itself; test: SEC
protein,measurement,setting,value
GST cleaved Grb7RA domain (domain or fragment) GSHVVKVYSEDGACRSVEVAAGATARHVCEMLVQRAHALSDETWGLVECHPHLALERGLEDHESVVEVQAAWPVGGDSRFVFRKNFAK,stoichiometry N,cross-linking,3
same,stoichiometry N,SEC,2
"6His-Grb7RA domain (domain or fragment, UniProt Q14451 102-187, looked up) HVVKVYSEDGACRSVEVAAGATARHVCEMLVQRAHALSDETWGLVECHPHLALERGLEDHESVVEVQAAWPVGGDSRFVFRKNFAK",stoichiometry N,cross-linking,2
same,stoichiometry N,SEC,3
